Positions count from the first letter of the chain named. Values belong to the binder of their own block, whether it stands above or below them.
Assays:
[1] = target: T1, biotinylated goat anti-human kappa light chain; assay: ELISA, positive control
T1 construct: positive control of the ELISA
Summary of the method: (§1)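 Monoclonal antibodies were first applied to human or mouse ACVR2A, alongside biotinylated goat anti-human kappa light chain (positive control) and human Fc (negative control); binding was then determined by ELISA.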

mouse ACVR2A = mouse ACVR2A (mouse, UniProt P27038 20-135, limits assumed); assay: ELISA
Summary of the method: as §1

human ACVR2A = target: T2, human ACVR2A (human, UniProt P27037 20-135, limits assumed); assay: ELISA
T2 construct: also called activin receptor, type II A
Summary of the method: as §1
Note: test concentration or dose not given here.

Sequence of mouse ACVR2A (P27038 20-135 limits assumed): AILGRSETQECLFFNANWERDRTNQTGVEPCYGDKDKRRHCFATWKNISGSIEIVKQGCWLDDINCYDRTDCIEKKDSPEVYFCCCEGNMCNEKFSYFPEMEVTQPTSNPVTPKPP
T2 sequence (P27037 20-135 limits assumed): as the sequence (P27038 20-135 limits assumed) above, with R20K, I73V counted along it

optical density [1]: 3.12 OD
optical density (mouse ACVR2A): 2.18 OD
optical density (human ACVR2A): 1.99 OD
B1: 365_B04 (antibody, V domains shown)
VH: EVQLLESGGGLVQPGGSLRLSCAASGFTFSSYGMHWVRQAPGKGLEWVASINYNSGYTSYADSVKGRFTISRDNSKNTLYLQMNSLRAEDTAVYYCARAANWHDTALDYWGQGTLVTVSS
VL: DIQMTQSPSSLSASVGDRVTITCRASQSILTYLNWYQQKPGKAPKLLIYAATSRHSGVPSRFSGSGSGTDFTLTISSLQPEDFATYYCQQSDESPLTFGGGTKVEIK
notes: Group I

optical density [1]: 3.52 OD
optical density (mouse ACVR2A): 2.39 OD
optical density (human ACVR2A): 2.27 OD
B2: 365_D04 (antibody, V domains shown)
VH: B1 VH with S31D, S50G, S55G, T58K
VL: B1 VL with L30S, T31S, L47V, A51V, H55A, D92Y, E93D, S94L
notes: Group I

optical density [1]: 3.34 OD
optical density (mouse ACVR2A): 2.02 OD
optical density (human ACVR2A): 2.2 OD
B3: 365_G06 (antibody, V domains shown)
VH: B1 VH with S30D, S50G, S55G, N101T, A106H
VL: B1 VL with T31S, R54L, H55A, E93S, S94T
notes: Group II

optical density [1]: 3.29 OD
optical density (mouse ACVR2A): 2.48 OD
optical density (human ACVR2A): 2.1 OD
B4: 365_G04 (antibody, V domains shown)
VH: B1 VH with S30D, G33S, H35N, S50G, S55G, S59G, A99G, A106H
VL: B1 VL with L30V, T31S, L33V, L47V, R54L, H55A, D92Y, E93D, S94T
notes: Group III

optical density [1]: 3.4 OD
optical density (mouse ACVR2A): 3.05 OD
optical density (human ACVR2A): 2.78 OD
B5: 365_F02 (antibody, V domains shown)
VH: B1 VH with G33S, H35N, A49S, S50G, S55G, T58K, S59G, A99G, A106H
VL: B1 VL with L33V, D92Y, E93D, S94T
notes: Group III

optical density [1]: 3.59 OD
optical density (mouse ACVR2A): 2.61 OD
optical density (human ACVR2A): 2.67 OD
B6: 365_H08 (antibody, V domains shown)
VH: B1 VH with S55G, T58K
VL: not shown
notes: Group I

optical density [1]: 3.52 OD
optical density (mouse ACVR2A): 3.28 OD
optical density (human ACVR2A): 3.32 OD
B7: 365_E12 (antibody, V domains shown)
VH: B1 VH with S31D, H35N, A49S, S50N, S55G, S59G, A99G
VL: B1 VL with H55A, D92Y, S94T
notes: Group III

optical density [1]: 3.67 OD
optical density (mouse ACVR2A): 2.93 OD
optical density (human ACVR2A): 2.62 OD
B8: 365_G09 (antibody, V domains shown)
VH: B1 VH with G33S, H35N, A49S, S50G, S55G, T58K, A99G, A106H
VL: B1 VL with L30I, L47V, H55A, D92Y, E93N
notes: Group III

optical density [1]: 3.53 OD
optical density (mouse ACVR2A): 2.81 OD
optical density (human ACVR2A): 2.56 OD
B9: 365_C05 (antibody, V domains shown)
VH: B1 VH with S31D, G33S, H35N, A49S, S50G, S55G, T58K, S59G, A99G, A106H
VL: B1 VL with D92Y, E93N
notes: Group III

optical density [1]: 3.4 OD
optical density (mouse ACVR2A): 1.99 OD
optical density (human ACVR2A): 1.82 OD
B10: 366_A04 (antibody, V domains shown)
VH: B1 VH with H35N, S50G, S55G
VL: B1 VL with L47V, R54L, H55A, E93D
notes: Group I

optical density [1]: 3.65 OD
optical density (mouse ACVR2A): 2.79 OD
optical density (human ACVR2A): 2.75 OD
B11: 365_F10 (antibody, V domains shown)
VH: B1 VH with S30D, S31D, A49S, S50G, S55G, N101T, A106H
VL: B1 VL with L30V, L33V, H55A, D92Y, S94L
notes: Group II

optical density [1]: 3.58 OD
optical density (mouse ACVR2A): 2.69 OD
optical density (human ACVR2A): 2.45 OD
B12: 366_A02 (antibody, V domains shown)
VH: B1 VH with S30D, H35N, T58K, S59G, A106H
VL: B1 VL with L30V, T31S, L33V, H55A, D92Y, E93D, S94L
notes: Group I

optical density [1]: 3.48 OD
optical density (mouse ACVR2A): 2.38 OD
optical density (human ACVR2A): 2.23 OD
B13: 366_D03 (antibody, V domains shown)
VH: B1 VH with S30D, A49S, S55G, S59G, A106H
VL: B1 VL with T31S, L33V, H55A, D92Y, E93D, S94L
notes: Group I

optical density [1]: 3.5 OD
optical density (mouse ACVR2A): 2.14 OD
optical density (human ACVR2A): 2.01 OD
B14: 365_F11 (antibody, V domains shown)
VH: B1 VH with S30D, G33S, H35N, A49S, S50G, T58K, S59G, A106H
VL: B1 VL with L30I, T31S, L33V, H55A, D92Y, E93N, S94T
notes: Group I

optical density [1]: 3.5 OD
optical density (mouse ACVR2A): 2.65 OD
optical density (human ACVR2A): 2.26 OD
B15: 365_C03 (antibody, V domains shown)
VH: B1 VH with S50G, T58K, S59G, A106H
VL: B1 VL with L33V, L47V, A51T, R54L, H55A, D92Y, E93N, S94T
notes: Group I

optical density [1]: 3.57 OD
optical density (mouse ACVR2A): 2.99 OD
optical density (human ACVR2A): 2.63 OD
B16: 365_F03 (antibody, V domains shown)
VH: B1 VH with S30D, G33S, H35N, A49S, S55G, A99G, A106H
VL: B1 VL with T31S, H55A, D92Y, E93D, S94N
notes: Group III

optical density [1]: 3.43 OD
optical density (mouse ACVR2A): 2.29 OD
optical density (human ACVR2A): 2.33 OD
B17: 365_B12 (antibody, V domains shown)
VH: B1 VH with S31D, A49S, S50G, S55G, N101T, A106H
VL: B1 VL with L30S, L33V, A51V, R54L, D92Y, E93D, S94N
notes: Group II

optical density [1]: 3.04 OD
optical density (mouse ACVR2A): 1.26 OD
optical density (human ACVR2A): 1.14 OD
B18: 365_B08 (antibody, V domains shown)
VH: B1 VH with S30D, H35N, A49S, S50N, T58K, S59G, N101T, A106H
VL: B1 VL with L30V, H55A, D92Y, E93S
notes: Group II

optical density [1]: 3.54 OD
optical density (mouse ACVR2A): 2.4 OD
optical density (human ACVR2A): 2.34 OD
B19: 365_E04 (antibody, V domains shown)
VH: B1 VH with S30D, S55G, T58K
VL: B1 VL with T31S, L33V, R54L, H55A, D92Y, S94L
notes: Group I

optical density [1]: 3.43 OD
optical density (mouse ACVR2A): 2.75 OD
optical density (human ACVR2A): 2.51 OD
B20: 365_H07 (antibody, V domains shown)
VH: B1 VH with S30D, G33S, H35N, A49S, S50G, S55G, A99G, A106H
VL: B1 VL with L30S, L33V, D92Y, S94N
notes: Group III

optical density [1]: 3.61 OD
optical density (mouse ACVR2A): 2.35 OD
optical density (human ACVR2A): 2.26 OD
B21: 365_D08 (antibody, V domains shown)
VH: B1 VH with S30D, G33S, A49S, S55G, N101T, A106H
VL: B1 VL with L30I, L33V, H55A, D92Y, E93D, S94T
notes: Group II

optical density [1]: 3.5 OD
optical density (mouse ACVR2A): 2.58 OD
optical density (human ACVR2A): 2.53 OD
B22: 365_G08 (antibody, V domains shown)
VH: B1 VH with S55G, N101T, A106H
VL: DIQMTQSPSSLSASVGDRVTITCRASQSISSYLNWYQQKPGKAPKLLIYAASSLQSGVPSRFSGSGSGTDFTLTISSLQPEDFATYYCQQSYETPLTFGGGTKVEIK
notes: Group II

optical density [1]: 3.66 OD
optical density (mouse ACVR2A): 2.72 OD
optical density (human ACVR2A): 2.69 OD
B23: 366_E01 (antibody, V domains shown)
VH: B1 VH with S30D, H35N, A49S, S50N, S55G, T58K, A99G, A106H
VL: B1 VL with H55A, D92Y, E93S
notes: Group III

optical density [1]: 3.53 OD
optical density (mouse ACVR2A): 2.48 OD
optical density (human ACVR2A): 2.35 OD
B24: 365_D03 (antibody, V domains shown)
VH: B1 VH with S30D, S31D, G33S, S55G, T58K, N101T, A106H
VL: B1 VL with L30V, T31S, L47V, H55A, D92Y, E93D
notes: Group II

optical density [1]: 3.39 OD
optical density (mouse ACVR2A): 2.53 OD
optical density (human ACVR2A): 2.3 OD
B25: 366_B09 (antibody, V domains shown)
VH: B1 VH with S31D, A49S, T58K, N101T, A106H
VL: B1 VL with L47V, D92Y, E93D
notes: Group II

optical density [1]: 3.22 OD
optical density (mouse ACVR2A): 1.92 OD
optical density (human ACVR2A): 1.8 OD
B26: 366_B07 (antibody, V domains shown)
VH: B1 VH with S31D, H35N, A49S, S50G, S55G, A99G, A106H
VL: B1 VL with L30V, T31S, L47V, A51T, H55A, D92Y, E93N
notes: Group III

optical density [1]: 3.47 OD
optical density (mouse ACVR2A): 2.6 OD
optical density (human ACVR2A): 2.42 OD
B27: 365_G07 (antibody, V domains shown)
VH: B1 VH with S30D, A49S, S55G
VL: B1 VL with L30V, T31S, H55A, D92Y, E93D, S94N
notes: Group I

optical density [1]: 3.54 OD
optical density (mouse ACVR2A): 2.54 OD
optical density (human ACVR2A): 2.24 OD
B28: 365_G03 (antibody, V domains shown)
VH: B1 VH with H35N, S50G, T58K, S59G, A99G, A106H
VL: B1 VL with L30V, T31S, H55A, D92Y, E93N, S94T
notes: Group III

optical density [1]: 3.48 OD
optical density (mouse ACVR2A): 2.46 OD
optical density (human ACVR2A): 2.36 OD
B29: 366_D01 (antibody, V domains shown)
VH: B1 VH with A49S, S55G, S59G, A106H
VL: B1 VL with L33V, H55A, D92Y, S94N
notes: Group I

optical density [1]: 3.29 OD
optical density (mouse ACVR2A): 2.06 OD
optical density (human ACVR2A): 1.99 OD
B30: 365_E06 (antibody, V domains shown)
VH: B1 VH with S30D, H35N, A49S, S50G, S55G, S59G, N101T, A106H
VL: B1 VL with L47V, H55A, D92Y, E93N, S94T
notes: Group II

optical density [1]: 3.14 OD
optical density (mouse ACVR2A): 1.86 OD
optical density (human ACVR2A): 1.68 OD
B31: 366_E07 (antibody, V domains shown)
VH: B1 VH with S30D, S50G, S55G, N101T
VL: B1 VL with L47V, E93N
notes: Group II

optical density [1]: 3.45 OD
optical density (mouse ACVR2A): 2.23 OD
optical density (human ACVR2A): 1.78 OD
B32: 365_C06 (antibody, V domains shown)
VH: B1 VH with S31D, A49S, S50G, S55G
VL: B1 VL with L30S, L33V, A51V, R54L, H55A, D92Y, E93D, S94N
notes: Group I

optical density [1]: 3.35 OD
optical density (mouse ACVR2A): 2 OD
optical density (human ACVR2A): 1.97 OD
B33: 366_E08 (antibody, V domains shown)
VH: B1 VH with S31D, G33S, H35N, A49S, S50N, S55G, A99G, A106H
VL: B1 VL with L30V, D92Y, E93S, S94N
notes: Group III

optical density [1]: 3.4 OD
optical density (mouse ACVR2A): 2.36 OD
optical density (human ACVR2A): 2.01 OD
B34: 366_C05 (antibody, V domains shown)
VH: B1 VH with S30D, S31D, A49S, S55G, S59G, N101T, A106H
VL: B1 VL with L30I, T31S, L47V, H55A, D92Y, E93D
notes: Group II

optical density [1]: 3.35 OD
optical density (mouse ACVR2A): 2.54 OD
optical density (human ACVR2A): 2.44 OD
B35: 365_G05 (antibody, V domains shown)
VH: B1 VH with H35N, A49S, S50G, S55G, T58K, S59G, A99G
VL: B1 VL with T31S, L47V, R54L, H55A, D92Y, S94N
notes: Group III
